The text below walks through data of paper PMC5262380, “Structural insights into the mechanism of the DEAH-box RNA helicase Prp43”.

The target of series [1] is ctPrp43-HT (Hook-Turn mutant) (Chaetomium thermophilum? (printed C. …, UniProt G0RY84 1-764, R180G;F181G)). The experiment in a line: fluorescence anisotropy; AMPPNP (100-fold excess), 3 mM MgCl2; Fluorescence anisotropy: 25 mM Tris pH 7.5, 150 mM KCl, 3 mM MgCl2, 25 C, 0.1 uM RNA, 0.01-50 uM protein, 100-fold excess AMPPNP. As to conditions: protein: recombinant; tags: GST-tag removed; label: 5' 6-carboxyfluorescein; single strand. (Fluorescence polarisation rises when a labelled molecule tumbles more slowly, as on binding a larger partner.)

The target in series [2] is ctPrp43 (Chaetomium thermophilum? (printed C. …, UniProt G0RY84 1-764)). The series is described as above. The settings on record: protein: recombinant; tags: GST-tag removed; label: 5' 6-carboxyfluorescein; single strand.
ctPrp43 (Chaetomium thermophilum?, sequence (G0RY84 entry or part of it): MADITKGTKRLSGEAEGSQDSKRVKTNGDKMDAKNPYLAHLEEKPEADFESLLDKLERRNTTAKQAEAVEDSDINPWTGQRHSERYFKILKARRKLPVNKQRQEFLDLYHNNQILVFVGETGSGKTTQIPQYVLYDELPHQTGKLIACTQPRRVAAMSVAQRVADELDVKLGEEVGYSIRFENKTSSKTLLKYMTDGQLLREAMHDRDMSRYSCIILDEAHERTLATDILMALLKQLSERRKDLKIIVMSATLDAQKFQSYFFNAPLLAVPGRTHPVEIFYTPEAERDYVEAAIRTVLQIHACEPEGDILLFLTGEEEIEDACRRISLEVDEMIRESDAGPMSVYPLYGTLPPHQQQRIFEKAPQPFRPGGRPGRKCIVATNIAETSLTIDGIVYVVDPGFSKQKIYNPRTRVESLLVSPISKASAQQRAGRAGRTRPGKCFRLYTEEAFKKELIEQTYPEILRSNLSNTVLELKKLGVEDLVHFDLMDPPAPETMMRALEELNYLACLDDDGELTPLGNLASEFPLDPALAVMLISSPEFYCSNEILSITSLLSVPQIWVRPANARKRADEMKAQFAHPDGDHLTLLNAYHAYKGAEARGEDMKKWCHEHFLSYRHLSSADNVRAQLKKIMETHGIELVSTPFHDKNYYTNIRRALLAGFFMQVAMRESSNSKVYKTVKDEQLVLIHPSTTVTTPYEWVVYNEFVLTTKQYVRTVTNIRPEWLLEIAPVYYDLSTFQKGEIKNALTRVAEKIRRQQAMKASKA

ctPrp43-HT (Hook-Turn mutant) (Chaetomium thermophilum?, sequence (G0RY84 entry or part of it R180G;F181G | mutant): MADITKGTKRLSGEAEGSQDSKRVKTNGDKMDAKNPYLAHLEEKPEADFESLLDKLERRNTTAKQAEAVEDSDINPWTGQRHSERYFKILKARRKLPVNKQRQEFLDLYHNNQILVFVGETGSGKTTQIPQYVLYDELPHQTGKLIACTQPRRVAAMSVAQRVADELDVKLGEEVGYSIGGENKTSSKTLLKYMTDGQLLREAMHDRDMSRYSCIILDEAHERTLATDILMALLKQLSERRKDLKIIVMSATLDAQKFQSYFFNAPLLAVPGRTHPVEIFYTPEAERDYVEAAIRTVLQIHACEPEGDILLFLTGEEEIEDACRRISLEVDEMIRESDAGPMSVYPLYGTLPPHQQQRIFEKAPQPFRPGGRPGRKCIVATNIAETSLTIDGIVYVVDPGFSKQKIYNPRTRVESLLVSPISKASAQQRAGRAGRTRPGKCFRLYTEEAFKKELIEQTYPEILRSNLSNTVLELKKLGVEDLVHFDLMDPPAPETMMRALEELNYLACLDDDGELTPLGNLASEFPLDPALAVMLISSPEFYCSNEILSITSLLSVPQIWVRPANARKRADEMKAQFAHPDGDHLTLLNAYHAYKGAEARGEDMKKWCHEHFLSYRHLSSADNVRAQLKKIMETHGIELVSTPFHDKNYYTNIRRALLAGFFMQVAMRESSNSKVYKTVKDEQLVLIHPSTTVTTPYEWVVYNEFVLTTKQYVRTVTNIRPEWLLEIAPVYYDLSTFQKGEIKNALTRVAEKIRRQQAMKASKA

B1: 5'-6FAM-U16-RNA (ssRNA)
RNA: UUUUUUUUUUUUUUUU
In general, Kd refers to the constant that tells how readily two partners part at equilibrium. Turning to B1, the Kd in series [1] worked out at 840 ± 50 nM; in series [2], 4980 ± 570 nM.
